Results as given in patent US20210388105A1 (ELPISCIENCE SUZHOU BIOPHARMA, published 2021).

Experiments:
Experiment in all cases: FACS, mutant-EGFP on HEK293F cells
[1] = biological target: T1, KW27-13 (human CD39 mutant, C-terminal EGFP) (human, UniProt P49961 1-510)
T1 construct: expressed on HEK293F cells; not shown: C-terminal EGFP fusion (vector pCMV3-GFPSpark)
T1 chain: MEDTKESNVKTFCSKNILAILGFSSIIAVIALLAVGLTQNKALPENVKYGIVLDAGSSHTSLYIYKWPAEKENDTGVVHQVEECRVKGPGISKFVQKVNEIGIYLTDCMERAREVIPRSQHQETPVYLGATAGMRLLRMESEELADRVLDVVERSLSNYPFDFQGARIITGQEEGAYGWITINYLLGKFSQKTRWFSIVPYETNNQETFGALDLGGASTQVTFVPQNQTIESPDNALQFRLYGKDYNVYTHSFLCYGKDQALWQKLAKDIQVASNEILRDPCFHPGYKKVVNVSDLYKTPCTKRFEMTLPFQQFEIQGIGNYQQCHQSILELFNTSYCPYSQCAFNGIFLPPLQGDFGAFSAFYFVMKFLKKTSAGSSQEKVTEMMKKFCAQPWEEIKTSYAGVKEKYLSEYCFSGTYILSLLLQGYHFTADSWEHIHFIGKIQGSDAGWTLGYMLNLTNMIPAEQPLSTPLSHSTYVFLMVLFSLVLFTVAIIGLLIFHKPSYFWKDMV
Description: (§1) Briefly, the human CD39 mutants were generated by gene synthesis and then cloned into an expression vector pCMV3-GFPSpark. The vectors containing the validated mutated sequences were prepared and transfected into HEK293F cells. Three days post transfection, the cells were collected to testing EGFP for transgene expression. A range of dosages of antibodies (start from 100 nM, 3-folds dilution, 11 points) were tested on the 20 generated mutants and stained by AlexFluor647 labelled anti-hIgG by FACS. Antibody binding was descripted as relative binding which is derived from AlexFluor647 intensity divided by GFP intensity.

[2] = biological target: T2, KW27-15 (human CD39 mutant, C-terminal EGFP) (human, UniProt P49961 1-510)
T2 construct: expressed on HEK293F cells; not shown: C-terminal EGFP fusion (vector pCMV3-GFPSpark)
T2 chain: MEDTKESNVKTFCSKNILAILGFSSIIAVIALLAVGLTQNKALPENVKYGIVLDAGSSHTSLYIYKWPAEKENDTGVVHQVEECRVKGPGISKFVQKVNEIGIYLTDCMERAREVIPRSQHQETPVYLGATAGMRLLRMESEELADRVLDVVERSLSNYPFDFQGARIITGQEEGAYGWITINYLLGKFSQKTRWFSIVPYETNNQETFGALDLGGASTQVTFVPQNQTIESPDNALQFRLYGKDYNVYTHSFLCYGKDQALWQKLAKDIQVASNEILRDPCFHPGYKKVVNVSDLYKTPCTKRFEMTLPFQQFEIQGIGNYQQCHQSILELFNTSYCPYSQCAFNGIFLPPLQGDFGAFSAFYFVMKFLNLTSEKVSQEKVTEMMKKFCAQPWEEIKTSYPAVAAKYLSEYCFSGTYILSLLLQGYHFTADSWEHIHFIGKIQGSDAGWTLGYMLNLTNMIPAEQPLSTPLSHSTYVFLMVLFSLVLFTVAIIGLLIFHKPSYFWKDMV
Description: as §1

[3] = biological target: T3, KW27-5 (human CD39 mutant, C-terminal EGFP) (human, UniProt P49961 1-510)
T3 construct: expressed on HEK293F cells; not shown: C-terminal EGFP fusion (vector pCMV3-GFPSpark)
T3 chain: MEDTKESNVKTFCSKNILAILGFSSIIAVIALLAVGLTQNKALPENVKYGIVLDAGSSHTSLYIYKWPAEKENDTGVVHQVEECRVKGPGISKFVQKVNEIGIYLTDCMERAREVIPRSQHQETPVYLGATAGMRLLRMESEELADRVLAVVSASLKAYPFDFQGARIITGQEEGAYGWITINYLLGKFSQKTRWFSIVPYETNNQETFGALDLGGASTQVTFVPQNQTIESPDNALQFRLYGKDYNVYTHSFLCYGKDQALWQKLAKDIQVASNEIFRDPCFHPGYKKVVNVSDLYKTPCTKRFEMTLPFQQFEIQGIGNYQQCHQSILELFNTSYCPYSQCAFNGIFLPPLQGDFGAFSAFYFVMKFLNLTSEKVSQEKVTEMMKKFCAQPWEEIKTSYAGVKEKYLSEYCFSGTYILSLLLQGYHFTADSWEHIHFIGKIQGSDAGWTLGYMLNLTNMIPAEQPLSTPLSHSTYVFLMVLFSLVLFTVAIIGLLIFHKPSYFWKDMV
Description: as §1

[4] = biological target: T4, KW27-1 (human CD39 mutant, C-terminal EGFP) (human, UniProt P49961 1-510)
T4 construct: expressed on HEK293F cells; not shown: C-terminal EGFP fusion (vector pCMV3-GFPSpark)
T4 chain: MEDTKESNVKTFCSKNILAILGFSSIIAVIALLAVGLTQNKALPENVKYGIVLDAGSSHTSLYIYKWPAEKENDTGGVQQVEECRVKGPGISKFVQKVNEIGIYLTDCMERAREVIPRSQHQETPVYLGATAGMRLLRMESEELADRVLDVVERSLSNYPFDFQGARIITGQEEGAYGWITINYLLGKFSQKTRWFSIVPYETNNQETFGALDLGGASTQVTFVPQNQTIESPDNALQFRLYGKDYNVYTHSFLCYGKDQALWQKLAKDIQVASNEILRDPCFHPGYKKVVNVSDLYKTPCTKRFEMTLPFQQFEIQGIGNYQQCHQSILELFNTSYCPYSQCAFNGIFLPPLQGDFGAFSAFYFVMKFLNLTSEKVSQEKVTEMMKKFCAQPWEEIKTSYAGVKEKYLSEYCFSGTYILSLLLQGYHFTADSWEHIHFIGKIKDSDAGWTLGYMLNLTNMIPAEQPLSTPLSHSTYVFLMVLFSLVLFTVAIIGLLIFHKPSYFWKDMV
Description: as §1

Measured: binding result

B1: Antibody 9-8B (antibody, V domains shown)
VH: QIQLVQSGPELKKPGETVKISCKASGYTFTHYGMNWVKQAPGKGLKWMGWINTYTGELTYADDFKGRFAFSLETSASTAYLQINNLKNEDTATYFCARRAYYRYDYVMDYWGQGTSVTVSS
VL: DIVMTQSQKFMSTSVGDRVSVTCKASHNVGTNVAWYQQKPGQSPKALIYSASYRYSGVPGRFTGSGSGTDFTLTISNVQSEDLAEYFCHQYNNYPYTFGGGTKLEIK
binds: [1] | [2] | [3] | [4]

B2: Antibody T895 (antibody, V domains shown)
VH: EVQLQQSGPELVKPGASVKMSCKASGYTFTDYNMHWVKQSHGRTLEWIGYIVPLNGGSTFNQKFKGRATLTVNTSSRTAYMELRSLTSEDSAAYYCARGGTRFAYWGQGTLVTVSA
VL: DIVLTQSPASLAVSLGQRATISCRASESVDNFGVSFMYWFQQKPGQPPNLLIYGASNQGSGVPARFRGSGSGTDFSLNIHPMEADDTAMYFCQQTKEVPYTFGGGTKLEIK
notes: also called 31895
binds: [1] | [2] | [3] | [4]

B3: c35 (antibody, V domains shown)
VH: EVRLQQSGAELVKPGASVKLSCTASGFNIEDTYVHWMKQRPEQGLEWIGRIDPAIDNSKYDPKFQGKATITAVSSSNTAYLQLSSLTSEDTAVYYCALYDGYNVYAMDYWGQGTSVTVSS
VL: DIVMTQAAFSNPVTLGTSASISCRSSKNLLHSNGITYLYWYLQRPGQSPQLLIYRASTLASGVPNRFSGSESGTDFTLRISRVEAEDVGVYYCAQLLELPHTFGGGTKLEIK
notes: its making is not described; also called chimeric antibody c35
binds: [1] | [2] | [3] | [4]

B4: c34 (antibody, V domains shown)
VH: EIQVQQSGPELVKPGASVKVSCKASGYSFTDYNMYWVKQSHGKSLEWIGFIDPYNGYTSYNQKFKGKATLTIDKSSSTAFMHLNSLTSEDSAVYYCAIYGYDDAYYFDYWGQGTTLTVSS
VL: QIVLTQSPAIMSASPGEKVTITCSATSSVSYMHWFRQKPGTSPKLWIYSTSNLASGVPARFSGSGSGTSYSLTISRMAAEDAATYYCQQRITYPFTFGSGTKLEIT
notes: its making is not described; also called chimeric antibody c34
binds: [1] | [2] | [3] | [4]

B5: hu23.H5L5 (antibody, V domains shown)
VH: QVQLVQSGAEVKKPGASVKVSCKASGYNLKDTFLHWVRQAPGQGLEWMGRIDPANGNIKYDPKFQGRVTITADTSANTAYMELISLRSEDTAVYYCANSPYYYGSGYRIFDVWGQGTTVTVSS
VL: QIVLTQSPATLSLSPGERATLSCSAFSSVNYMHWYQQKPGQAPRLLIYTTSNLASGIPTRFSGSGSGTSYTLTISSLEPEDFAVYYCQQRSTYPFTFGQGTKLEIK
notes: humanized c23
binds: [1] | [2] | [3] | [4]
